Target: T1, cdkn3_human CDKN3 (UniProt Q16667)
T1 sequence: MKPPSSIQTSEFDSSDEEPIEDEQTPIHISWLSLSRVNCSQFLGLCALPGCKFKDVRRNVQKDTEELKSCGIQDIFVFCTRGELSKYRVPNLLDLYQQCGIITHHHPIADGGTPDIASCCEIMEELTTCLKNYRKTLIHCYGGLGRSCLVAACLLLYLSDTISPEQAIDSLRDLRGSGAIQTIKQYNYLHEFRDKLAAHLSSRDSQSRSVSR

effect of a mutation on the interaction: disrupting interaction
Substance: Cyclin-dependent kinase 2 (Homo sapiens) (from UniProt P24941) K237V

— IntAct's records for PubMed 15530371
